For assay [1], the target named is Dengue 1 (DENV1) strain Hawaii, whole virus (Dengue virus 1, strain Hawaii, UniProt B5AGU1, strain). Briefly: ELISA. Conditions: both partners purified.
Assay [2] concerns the target Dengue 2 (DENV2), whole virus (Dengue virus 2, strain New Guinea C (or …, UniProt P14340, strain)). Briefly: ELISA. To be noted: both partners purified. For orientation: In an ELISA, binding on a coated surface is turned into a signal by an enzyme label.
Assay [3] addresses Dengue 3 (DENV3) strain H87, whole virus (Dengue virus 3, strain H87, UniProt P27915, strain). Briefly: ELISA. To be noted: both partners purified.
In assay [4] the target is Dengue 4 (DENV4) strain H241, whole virus (Dengue virus 4, strain H241, UniProt Q58HT7, strain). Briefly: ELISA. Conditions: both partners purified.
Assay [5] addresses T1, envelope (E) protein of DENV3 (Dengue virus 3, strain H87, UniProt P27915).
T1 construct: also called E glycoprotein; source: DENV3-infected Vero cells, in lysate
Description: Western blot. To be noted: one partner purified.

The target in assay [6] is T2, envelope (E) protein of DENV4 (Dengue virus 4, strain H241, UniProt Q58HT7).
T2 construct: also called E glycoprotein; source: DENV4-infected Vero cells, in lysate
Description: Western blot. Conditions: one partner purified. A general note: Immunoblotting shows a protein as a band on a membrane.

For assay [7], the target named is T3, prM protein of the non-mutated prM-E construct (pCMV-prM-E) (Dengue virus 2 strain New Guinea C, UniProt P14340).
T3 construct: also called prM of pCMV-prM-E; source: HEK293-T cells, transfected, in lysate
Briefly: Western blot. Conditions: one partner purified.

A further assay concerns the target prM protein of DENV3 (Dengue virus 3, strain H87, UniProt P27915). Briefly: Western blot. Conditions: one partner purified.

The term Kd denotes the constant that tells how readily two partners part at equilibrium. A lower Kd goes with higher affinity.

B1: D29 Fab-IgG (antibody, V domains shown)
VH: QMQLVQSGGGVVQPGRSLRLSCAASGFTFSSYAMHWVRQAPGKGLEWVAGTSYDGSNKYYADSVKGRFTISGDNSKNTVYLQMNSLRAEDTAVYYCARAHSSGWYDAFDIWGQGTTVTVSS
VL: SYVLTQPPSVSVSPGQAASITCSGDKLGDKYAWWYQQKPGQSPVMVIHQDDKRPSGIPERFSGSNSGNTATLTITGTQAMDEADYYCQAWDRTTVVFGGGTKLTVL
notes: source: HEK 293 T cells (Fab from a non-immunized human Fab phage library, converted into human IgG format)
As for B1, the dissociation constant (Kd) in assay [1] was 0.0905 nM; in assay [2], 0.0869 nM; in assay [3], 0.114 nM; in assay [4], 0.108 nM. Besides, the binding result (in assay [5]; in assay [6]; in assay [7]; in the assay with prM protein of DENV3) was “binds” in each case.

Source of the values: paper PMC3317930, “A Human PrM Antibody That Recognizes a Novel Cryptic Epitope on Dengue E Glycoprotein” (PLoS ONE, 2012).
